From doi:10.1101/2024.01.14.575549v2 (bioRxiv, 2024)

Experiments:
[1] = test system: human neuroblastoma SH-SY5Y cells; assay: Aβ42 aggregates on SH-SY5Y cells with or without 1,6-hexanediol treatment; format: cell-based
[2] = Diffusion coefficient of free Aβ42 in solution by MDS; format: physicochemical; conditions: Stokes-Einstein equation from hydrodynamic radius measured by MDS
[3] = Susceptibility of Aβ42 condensates to 1,6-hexanediol and KCl in vitro; format: physicochemical; conditions: confocal microscopy
[4] = format: physicochemical

For `OCCCCCCO` [HXD, 1,6-hexanediol, reference compound], the “decrease of Aβ42 aggregate number normalised by total cell area, versus vehicle” value ([1]; SH-SY5Y cells, 2 μM Aβ42 monomer for 16 h, then 2.5% w/v 1,6-hexanediol) was 30%.
In the case of amyloid β1-42 [Aβ42], the “diffusion coefficient of Aβ42 in solution” value [2] was 1.4 ± 0.1 × 10^−10 m^2s^−1, the “response of mature Aβ42 condensates to 100% 1,6-hexanediol” value ([3]; condensates incubated 22 h on DMPC membrane, 100% (6 M) HXD) was “remained intact” and the “response of Aβ42 condensates to 50% 1,6-hexanediol” value ([3]; condensates on lipid membrane, 50% HXD) was “dissolved”. The “area of Aβ42 species at high cell densities” value ([1]; SH-SY5Y 40 000 cells/well, 2 μM monomer, 48 h incubation) was < 50 µm^2, the “timescale for the direct solution to amyloid fibril transition” value ([4]; estimated from Figure 6d (FCS, non-LLPS conditions)) was 61 h and the “ΔG^‡LLPS, free energy barrier for monomeric to liquid transition” value ([4]; from t = 3 h, c = 2 μM) was 8.01 kcal/mol. For the same molecule, the “ΔG^‡LTS, free energy barrier for liquid to solid transition” value ([4]; from t = 21 h) was 8.05 kcal/mol.
